Data on seven substances can be found in article PMC5240623.

In series [1] the target is DmMBD2/3 coiled-coil domain (amino acids 309–339), thioredoxin fusion (D. melanogaster). Kind of series: ITC; fusion peptides left uncleaved; 50 mM Hepes pH 7.4, 150 mM NaCl, 298 K; MicroCal Auto-iTC200, 20–24 injections; HsMBD2 (1.8 mM), EmGATAD2A/B (2.74 mM), DmGATAD2A/B (2.5 mM) injected into HsGATAD2A (100 μM), EmMBD2/3 (270 μM), DmMBD2/3 (250 μM); one-site binding model.

Series [2] relates to EmMBD2/3a coiled-coil domain (amino acids 324–354), thioredoxin fusion. Kind of series: AUC; sedimentation velocity, 40,000 rpm, 293 K, 20 mM Tris pH 8.0, 150 mM NaCl; thioredoxin fusions left uncleaved; each peptide in isolation and a 100 μM mixture.
For series [3], the target named is EmMBD2/3a coiled-coil domain (amino acids 324–354), thioredoxin fusion (E. muelleri). The series is described as follows: ITC; fusion peptides left uncleaved; 50 mM Hepes pH 7.4, 150 mM NaCl, 298 K; MicroCal Auto-iTC200, 20–24 injections; HsMBD2 (1.8 mM), EmGATAD2A/B (2.74 mM), DmGATAD2A/B (2.5 mM) injected into HsGATAD2A (100 μM), EmMBD2/3 (270 μM), DmMBD2/3 (250 μM); one-site binding model.

The target in series [4] is HsGATAD2A coiled-coil domain, uncleaved fusion peptide (human) (UniProt Q86YP4). Described as above.
Sequence of HsGATAD2A coiled-coil domain, uncleaved fusion peptide (human) (Q86YP4 137-178): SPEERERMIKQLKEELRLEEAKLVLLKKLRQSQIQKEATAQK
For series [5], the system named is EmMBD2/3 MBD (Ephydatia muelleri). The series is described as follows: SPR. The note with it: SPR: 10 mM HEPES pH 7.4, 50 mM NaCl, 3 mM MgCl2, 0.1 mM EDTA, 1 mM DTT, 0.05% polysorbate 20, temperature not stated, NMR conditions not in material.
The target in series [6] is EmGATAD2A/B coiled-coil domain (amino acids 58–100), thioredoxin fusion (E. muelleri). The series is described as follows: ITC; fusion peptides left uncleaved; 50 mM Hepes pH 7.4, 150 mM NaCl, 298 K; MicroCal Auto-iTC200, 20–24 injections; HsMBD2 (1.8 mM), EmGATAD2A/B (2.74 mM), DmGATAD2A/B (2.5 mM) injected into HsGATAD2A (100 μM), EmMBD2/3 (270 μM), DmMBD2/3 (250 μM); one-site binding model.

Sequence of HsMBD2 coiled-coil domain, uncleaved fusion peptide (Q9UBB5 360-393): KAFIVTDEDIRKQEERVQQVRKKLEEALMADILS
Sequence of DmMBD2/3 coiled-coil domain (amino acids 309–339), thioredoxin fusion (D. melanogaster) (main, as listed by the source): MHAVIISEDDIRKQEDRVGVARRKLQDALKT

In series [1], “DmGATAD2A/B coiled-coil domain (amino acids 183–223), thioredoxin fusion (domain or fragment)” came in with a Kd of 7.4 µM, a dH of -27.6 kcal/mol and a stoichiometry N of 1.

As to “EmGATAD2A/B coiled-coil domain (amino acids 58–100), thioredoxin fusion”, the “percent of heterodimeric species in a 100 μM mixture” value in series [2] is listed as “heterodimeric (45.1 kDa, 58.1%)”.

With “EmGATAD2A/B coiled-coil domain (amino acids 58–100), thioredoxin fusion (domain or fragment)”, in series [3], the Kd turned out to be 9.2 µM, the dH was -9.8 kcal/mol and the stoichiometry N worked out at 0.8.

Take “EmMBD2/3a coiled-coil domain (amino acids 324–354), thioredoxin fusion (domain or fragment)”: in series [4], the Kd worked out at 0.38 µM, the dH is -8.99 kcal/mol and the stoichiometry N amounted to 1.3.

With “GAGGCGCTCGGCGGCAG (double strand) [CpG(x3) 17 bp, 3'-biotin]”, the Kd in series [5] was found to be 65 µM.

The substance “GAGGCGCTCGGCGGCAG (double strand) [mCpG 17 bp, 3'-biotin]” displayed a Kd in series [5] (5-methyl-C at C9 of strand 1 and C8 of strand 2 (central CpG), two other CpGs unmethylated) of 0.43 µM.

In series [6], “HsMBD2 coiled-coil domain, uncleaved fusion peptide (from UniProt Q9UBB5 360-393) (domain or fragment)” came in with a Kd of 1.3 µM, a dH of -8.92 kcal/mol and a stoichiometry N of 1.1.
